Measurements from the DeepSol protein solubility set.

Experiment: soluble on expression in E. coli; label from the status in PepcDB or PDB records

| Sequence | soluble on expression in E. coli |
| --- | --- |
| MAIFTDPIREHADFGPGDAEWLHLLVGDWQMVADLAFADLALWFPHPEFGYIALAHVRPSTSHTVFHADFVGEGIRSDLRPLVDKAWNSRSIERSSETSWSSEMALRVEAVPMVRNGRTLAVVTSHMDLSSSRMPSRLELTYRQCAYDLLRMGTLGLWPDFASPTGSRRGAPRVGDGLIRLDAEGIVQYASPNGVSAFRRLGEVESLEGRSLAEVTAGLLKDRRMVDETLPLVVTGRMPWRSEIESRGVSLSLRAIPLRDEQHRFGALVLCRDVSELRRREMELVTKDATIREIHHRVKNNLQTVAALLRMQSRRMVSDEAKQGLEQAMRRVATIALVHETLSQGLTQSVDFDELIGRQFRLSAEVASPSQQVRTERSGLFGELPSDFATPLALVINELVTNAVEHGLEGRTGTVWLLADRADGDGNDEFLTVTIADDGVGLPDGQYTEGLGLQIVRTLVTSELGGSIQWSPREGGGTAVEIVLNLARA | not soluble |
| MAIIFNPNKKIFTLQTAHTTYQMQVDRLGYLLHLYYGAKSTCDMDYVLTYADRGFSGNPYAAGMNRTYSLDTLPQEYPTLGTGDFRNIALDIKNEQGTESVELLYKSYEIRDGKYALKGLPAVWASDDEAQTLEIVLGDDIAGVEVHLLYGVLEACDVITRSVLIKNTGSGNITIEKAHAACLDMVYGDYDVIRFYGKHAMERNLERTHLGHGTLSFGSRRGTSSHQYNPAVILAQRDTTENAGDCYGMLFVYSGNFSCEAEKDQINQTRLLMGLSDELFSYPLAAGETFTVPEVIMSYSADGFSQLSHQYHTCISEHVCRSRFAHEVRPVLINSWEAAYFDFTGDTIVDLAKEAASLGIDMVVMDDGWFGKRDDDNSSLGDWFVNEKKLGGTLSELIDRVHAQGVKFGIWIEPEMVNEDSNLYREHPDWAIQIPGKLPVRSRNQLILDFSRKEVRDNIFNQICAVFDQGKIDYVKWDMNRSMADVYAGNLAYDYVLGVYDFMERLVTRYPDILLEGCSGGGGRFDAGMLYYSPQIWCSDNTDAINRTRIQYGTSFFYPVSSMGAHVSAVPNHQTGRVTSLKTRGITAMAGTFGYELNPALLSDEEKEEIREQIKTFKKYEMLINEGTYWRLTSPFEDEVAAWMSVSRTKDRALVSVVRLYAEANAAACYVKLKGLESDAVYIEENTGRQYTGAALMNAGIPLPFAVKEYEAYQFSFIRLDEAKKLYDEIKKVCGNLKLNEADTADSASDNRLEHHHHHH | soluble |
| MAIIRQRYQEQLDDLIKELRRLGANVYVSIENGIKSLSIDDRGFARQTVKNDKHINQLNYDINERVIMLITKQQPIASDLRMMISSLKIASDLERIGDNASSIANIRLRTKITDDYVLTRLKTMGKLAMLMLKDLDQAFKKKDTVLIREIIERDEDIDDLYSHIINATYLIDNDPFVAAQAHLAARHLERIGDHIINIAESVYFYLTGTHYEQ | not soluble |
| MAILAARIAVSNLHKETKKVFSDVMEDLYNYINPHNGKHSPMVAKSTLDIVLANKDRLNSAIIYDRDFSYNYFGFKTLERSYLLKINGKVAERPQHMLMRVSVGIHKEDIDAAIETYNLLSERWFTHASPTLFNAGTNRPQLSSCFLLSMKDDSIEGIYDTLKQCALISKSAGGIGVAVSCIRATGSYIAGTNGNSNGLVPMLRVYNNTARYVDQGGNKRPGAFAIYLEPWHLDIFEFLDLKKNTGKEEQRARDLFFALWIPDLFMKRVETNQDWSLMCPNECPGLDEVWGEEFEKLYASYEKQGRVRKVVKAQQLWYAIIESQTETGTPYMLYKDSCNRKSNQQNLGTIKCSNLCTEIVEYTSKDEVAVCNLASLALNMYVTSEHTYDFKKLAEVTKVVVRNLNKIIDINYYPVPEACLSNKRHRPIGIGVQGLADAFILMRYPFESAEAQLLNKQIFETIYYGALEASCDLAKEQGPYETYEGSPVSKGILQYDMWNVTPTDLWDWKVLKEKIAKYGIRNSLLIAPMPTASTAQILGNNESIEPYTSNIYTRRVLSGEFQIVNPHLLKDLTERGLWHEEMKNQIIACNGSIQSIPEIPDDLKQLYKTVWEISQKTVLKMAAERGAFIDQSQSLNIHIAEPNYGKLTSMHFYGWKQGLKTGMYYLRTRAHHHHHH | soluble |
| MAILGLGTDIVEISRIQAVVERTGERLARRILSPSEWQHYQQHQQPVRFLAKRFAVKEAAAKAFGTGIRNGLAFNQFEVVNDALGKPTLRLHSRAAELAVELGVKSLHVTLADERRYACATVIIES | not soluble |
| MAINLNTFAKVSADWYELKKSQPLAENTIKDIWRSLEKYVFPFIGTLPITQLTARHFISALEPIQASGKLETVKRVSQRINEVMDYAVNSGLIPANPAAKIRKAFQTPVKTHMLEHHHHHH | not soluble |
| MAKAKAAPKKSVKKVEKSPSPEDSGIRRSGRQRIEMGKYEEGFDRHELEMVLRASLNEANQQGIKVPSTSSTASASAPAPVKKEIKPKNKPAPVPVVEKKRTIPSKKERDAERKALAAAAAAAATLTSMKKAPIKKSVPSTSSEADSTTPKKKGSAVKAKKVTIKTPSSEPAELTSSAAPVPVAVPEVPTAEATTSATTTPTTTNATIVKKEETKAEQPVKKVVKKKAISKKPPTTTNVTSTSDSSAAAAAAKKKKKPVVPKLSTKPTKQYLENEKQMRLMATQKCTYKEPKSLEKRIYFIPFYSLKLAKKNDQISYLNLISFIHKNLFFNF | soluble |
| MAKAKTQFVCQNCGTVHNRWAGKCEGCGEWNTIVEEDPMGGIGSGPGKVPKKGRPVTLTSLSGEIEEAPRIPTGISELDRATGGGFVRGSAVLIGGDPGIGKSTLLMQAAAALSRRGHRVIYVSGEEAVAQVRLRAQRLGSADTDVLLAAETNVEDILATVSEGKRPDLIIIDSIQTLWSDTADSAPGTVTQVRTGVQAMIRFAKQTGATMVLVGHVTKEGQIAGPRVVEHMVDAVLYFEGDRGHHYRILRTVKNRFGPTDEIGVFEMSDGGLREVSNPSELFLGERNEKSPGAAVFAGIEGTRPVLVEVQALVAATSLGTPRRAVVGWDSSRLAMILAVLEAHCGVKLGQHDVYLNVAGGYRISEPAADMAIASALVSSLAGLALPADCVYFGEISLSGAVRPVAHTVQRLKEAEKLGFSAALLPSGSAELPKAGKGRWTEIESLPDLVAHIAGSGNRFKQVEDDEY | not soluble |
| MAKARAIVITGNGTNCEMEAAHACRLGGFDETVIAHISDILTGEIRLDDFHFLNLTGGFLDGDDLGSAKAQANRFRYARVDDLEEHLIDQIIRFIDAGKLILGVCNGFQLMTKMGLLPAVDGAYLAQTATLTFNACGRFQDRWVYLKVDQASPSIYTKGVETGLYLPIRHGEGKFVVDSPATLAAIEAKHLAVFTYSDETYSAPTMEFPLNPNGSVNAIAAVCNESGRLMGMMPHPEAFLHRTNHPRWTREDLPEEGDGLVLFRNAADYAKANLLLEHHHHHH | not soluble |
| MAKEIYSKYPMVKYLRKEALPTALCPGCGGGTVLNAFANAIDQLKIDPRDLVVVSGIGCSAWIASPYFLADTLHTTHGRAIAFATGVKVGLPDKYVVVISGDGDLASIGGNHLIHAARRNIDITVILVNNFIYGMTGGQVAPTTPFGAITTTTPYRNIEHPLNIAETVAAAGASYVARWTTAHVYQLIESIKKAITTKGFSLVEVISQCPVQFGRRNKMKQPAEMLRWFLKNSVPISKAKNMSEEELEGKFIVGEFVNRRKPEFVGELNKLIREVQSKFKEE | not soluble |
| MAKEKKRGFFSWLGLGRQSEEPAAEPLATEKEGVTEQEDVIEQTGVIEPTDVIEQTVEHVISEKTTEAPAENAFIEVELREQVAAVIPTEPNNAIMSEGVPDTLPERAVAESVVAELVETGDNAAIVHDEIIEPITQVTEAGGELSLVKPGIEGDTTEQGGPTDNLPKRSLTEDNLIIDVPTPQAVVEESRVDAVEQPTETSEVEEVEEVEEVEEVEEVEEKIIPVAAQEQERPTKEGFFARLKRSLIKTKQNLGSGFMGLFSGKKIDDDLFEELEEQLLIADVGVETTRKIITSLTEHTSRKQLKDADALYGKLKEEMSEILSKVDKPLDVSGKSPYVILMVGVNGVGKTTTIGKLARQFQAEGKSVMLAAGDTFRAAAVEQLQVWGERNKIAVVAQHTGADSASVIFDAIQAAKARGIDVLLADTAGRLQNKAHLMEELKKIVRVMKKLDGDAPHEVMLTLDASTGQNAVSQAKLFNEAVGLTGITLTKLDGTAKGGVIFAIADQFEIPIRYIGVGEGIEDLRPFKADEFIEALFARED | not soluble |
| MAKEKTVYVCSNCGQESPKWVGKCPSCGEWNTYVEEIVRKETTNRRPVSGIETQKAKPVILSEIEADDEPRINMHDDELNRVLGGGLVPGSLVLIGGEPGIGKSTLVMQTVLRMPDKKILYVSGEESARQLKLRADRLSEVSSDCLIVCETSLEQIYVHIKNTSPDLVIIDSIQTISTENIESSPGSIAQVRECSASILRFAKETHTPVLLIGHINKEGSIAGPKVLEHIVDTVLQFEGDQHYMYRILRSIKNRFGSTAELGIYEMRQDGLRQVSNPSELLLSQDHEGMSGVAIASAIEGVRPFLIETQALVSSAVYGNPQRSATGFDIRRMNMLLAVLEKRVGFKLAQKDVFLNIAGGLKVNDPAIDLAVISAILSSNMDAAVEPEVCMAGEIGLSGEIRPVNRIEQRIGEAEKLGFKRFLLPKYNLQGIDTQKLKIELVPVRKVEEAFRALFG | not soluble |
| MAKMRISPELKKLIEKYRSVKDTEGMSPAKVYKLVGENENLYLKMTDSRYKGTTYDVEREKDMMLWLEGKLPVPKVLHFERHDGWSNLLMSEADGVLCSEEYEDEQSPEKIIELYAECIRLFHSIDISDCPYTNSLDSRLAELDYLLNNDLADVDSENWEEDTPFKDPRELYDFLKTEKPEEELVFSHGDLGDSNIFVKDGKVSGFIDLGRSGRADKWYDIAFCVRSIREDIGEEQYVELFFDLLGIKPDWEKIKYYILLDELF | soluble |
| MAKNKTVFSCTECGGQSPKWQGQCPHCSAWNTLVEAVAAPAAASPRFQSWAANVTKVQKLSEVQTEETPRDPSGIDELDRVLGGGIVRGAVVLIGGDPGIGKSTLLLQALSQIGRSRKVLYVSGEESAQQIALRASRLALDTSSVDLLAEICIENILETLKREQPEVVVIDSIQTLYTEQVTSAPGSVSQVRECAAQLTRMAKQSGITVLLVGHVTKEGSLAGPRVLEHMVDTVLYFEGDSHSSYRMIRAIKNRFGAVNELGVFAMTDRGLKGVSNPSAIFLSSYRDDVAGSCVLVTQEGTRPLLVEIQALVDDCHGFQPKRLTVGLEQNRLSMLLAVLHRHGGVACFDQDVFLNAVGGVKINEPAADLAIILAMVSSLRNKALPEKLVVFGEVGLAGEVRPVTRGQERLKEAAKLGFTRAIVPTANKPRQEIEGLKVLAVDRLDQAVEYCRE | not soluble |
| MAKNSKFDRVQVVDKAVDLYWEKGFHGTSMRNLQEVIDMRPGSIYATFGSKEGLFKESLQRYTQSGILHLEQCCHEQKSPLLGLKSFIHNIVVEKRSSAPSGMCMLVKTVTELTNENEELLTEAKRSLKIMESEFEKVLRQAQEIGEIEKEKDTKQLAQFVQVQIAGLRTYARTVDSDLPLQNMLDNMFSHYPF | not soluble |
| MAKQDVIELEGTVLDTLPNAMFKVELENGHEILAHVSGKIRMNYIRILPGDKVTVEMSPYDLTRGRITYRYK | not soluble |
| MAKVKRRDLLKAGAALAAAGTLGKGFAQEFYASPPTLLPRSRAPRVVVVGGGWGGTTVARKVKQQNPGVEVVLVEQKPIFMSCPMSNLFLAGVKPLEWLVFDYTNVVKDGVIFVQEKVLEINRDRRLVRTTGGYLAYDFLVLAPGIDYMYEAIPGYEEAKHFLPVGFKPFEHIALRRMLDRFDETGGELVMYIPPPPYRCPPGPYERAAMLAWRLKTKGVKGKVIVLDANPQPLAKAPGFLAAYNELYKDYLEYQPNMRITGLDYEKKVVRTELGDYPFTLANVIPPMKAAEIVRQAGLGERWANVRIPYFLSEADDRVYLVGDITGNTPYPKSGMIAYVSGTIVARHLTERLKGKPLAEIPPELPTNICYSFVDSEEAIWVSANYSWDEAEKRIKAQSQVDNQRSKANGEAAIGWALGLWNDMFGPA | soluble |
